Data reported in PMC7423924, “A fluorogenic cyclic peptide for imaging and quantification of drug-induced apoptosis” (Nature Communications, 2020).
Several values for one entry are separate records, joined by “and”; a condition that tells them apart may be missing. Identical values can stand only once.

System: human monocyte-derived macrophages (MDMs)
Assay: Phagocytosis of pHrodo-labeled apoptotic neutrophils by MDMs
Type: cell-based
Conditions: protein S 25 nM, AF647-Annexin V 25 nM
Procedure: Neutrophils were cultured in the absence (black) or presence of Apo-15 (gray: 100 nM, white: 300 nM). Data presented as mean values ± SEM (n = 3). b Representative histograms of glucocorticoid-treated human MDMs after phagocytosis of pHrodo^TM-labeled neutrophils in the presence of different concentrations of Apo-15. Cells were analyzed using a 5L LSR cytometer with MDM identified based on their distinctive forward and side scatter properties (n = 4). Gating strategy in Supplementary Fig. 15A. c Flow cytometric quantification of phagocytosis of pHrodo^TM-labeled neutrophils by human MDMs. Human MDMs and neutrophils were co-cultured in the absence or presence of protein S (25 nM) and Apo-15 (60 or 600 nM) or AF647-Annexin V (25 nM). Data presented as mean values ± SEM (n ≥ 3). d Representative brightfield and fluorescence microscope images (from four independent experiments) of Apo-15-treated human neutrophils (green) in co-culture with human MDMs. […]
One potential limitation to the use of annexins for imaging apoptosis is their interference with the clearance of apoptotic cells by phagocytes. […] We examined whether Apo-15 affected the engulfment of apoptotic cells using a well-established in vitro assay to quantify the extent of phagocytosis in human monocyte-derived macrophages (MDMs) in the presence of the PS-opsonin protein S (Fig. 4b)[32],[33]. […]

B1: Annexin V: fluorescently-labeled (AF647) annexin V, PS-binding protein (protein, UniProt P08758 2-320, looked up)
Annexin A5: AQVLRGTVTDFPGFDERADAETLRKAMKGLGTDEESILTLLTSRSNAQRQEISAAFKTLFGRDLLDDLKSELTGKFEKLIVALMKPSRLYDAYELKHALKGAGTNEKVLTEIIASRTPEELRAIKQVYEEEYGSSLEDDVVGDTSGYYQRMLVVLLQANRDPDAGIDEAQVEQDAQALFQAGELKWGTDEEKFITIFGTRSVSHLRKVFDKYMTISGFQIEETIDRETSGNLEQLLLAVVKSIRSIPAYLAETLYYAMKGAGTDDHTLIRVMVSRSEIDLFNIRKEFRKNFATSLYSMIKGDTSGDYKKALLLLCGEDD
modifications: AF647 label
In the case of B1, the “Phagocytosis assay (%)” value (40 min, 37 °C, single replicates) is reported as 30.0% and 35.0% and 33.0% and the “Reduction of the phagocytic capacity of MDMs” value (Apo-15 60 or 600 nM) is reported as ~ 50%.
